System: MS2 coat protein
Test: apparent KD of MS2 coat protein; designed switch direction (-1 OFF switch, 1 ON switch): 1; higher = weaker reporter binding
Procedure, shortened: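 The reported apparent KD is a per-design median over clusters, from curve fits of normalised cluster fluorescence. Protein titrations used SNAP-549-labelled MS2 coat protein, doubled from 0.7 or 1.5 nM to 3 µM, in Tris-HCl pH 7.5 buffer with KCl, MgCl2, BSA, DTT, tRNA and Tween-20, with no input, 200 uM small-molecule ligand, or an oligonucleotide input. The RNA switches were transcribed on Illumina chips by stalled E. coli RNA polymerase.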

[1] = input ligand: microRNA oligo, concentration not stated
[2] = Eterna round: R95, input ligand: microRNA oligo, concentration not stated
[3] = Eterna round: R95, input ligand: FMN 200 uM
[4] = Eterna round: R95, input ligand: none

Row | Sequence | apparent KD of MS2 coat protein (input ligand: FMN 200 uM) [nM] | apparent KD of MS2 coat protein [1] [nM] | apparent KD of MS2 coat protein (input ligand: none) [nM] | apparent KD of MS2 coat protein [2] [nM] | apparent KD of MS2 coat protein [3] [nM] | apparent KD of MS2 coat protein [4] [nM]
1 | CUGAGCGAUCUAGGAUAUCACGUCGUUUAGACGUGAGAAGGAGAUCAUAACAUGAGGAUCACCCAUGUAUUACAUGAAGCUCAG [SSNG1/6-A3] (Eterna round: R96, puzzle: Same State NG 1) | 14.9 | 16.9 | 19.1 |  |  | 
2 | CAGCGCUGUUGAGAGGAUAUGCGGUGAUGGACAUGAGGAUCACCCAUGUUAGCGACAGCAUUACGGUAGAAGGCUCCACAGCUGC [Soteed Omei mod 14] (puzzle: Same State 2) |  |  |  | 17.9 |  | 
3 | CCGUUGAUAGGACAGGAUAUGACUGUCGUCACAUGAGGAUCACCCAUGUCCCGGCAAUGCCACCGUUAGAAGGGUCCCGUCUCGG [Beenraor] (puzzle: Same State 2) |  |  |  | 16.9 |  | 
4 | UAGAGAGGAAGCGAGGAUAUCGUGUUAGGUACAUGAGGAUCACCCAUGUUUUAAGUAGAGAUAGGCGAGAAGGCGCAGGAGAAGA [JR_SS2_Sub089] (puzzle: Same State 2) |  |  |  | 20.1 | 38 | 28
5 | CGUAGGUAGCUGGAGGAUAUUCGAGUGGUAACAUGAGGAUCACCCAUGUGGAUAGAGGAACAUGAGGAGAAGGCUAGCUGCCUGC [JL-ss2-3.20 JL mod] (puzzle: Same State 2) |  |  |  | 26.6 | 11.3 | 30.6
6 | UGGCUCAGACGAGGAUAUAUGUGAUCACAUGAGGAUCACCCAUGUCUCGAGCUUCGGCUCGAGACAUAGAAGGCGUCUGAGCCA [SSNG2/3-A2] (Eterna round: R96, puzzle: Same State NG 2) | 118 | 66.3 | 18.5 |  |  | 
7 | UUAAUUAAUUAAUUAUACAUGAGGAUCACCCAUGUAAGUGAUCAGGAUAUCAGCUCGAAUAGAGCUGAGAAGGGAUACAUGAAU [SSNG3/12-A1] (Eterna round: R96, puzzle: Same State NG 3) |  | 101 |  |  |  | 
8 | GGUCCAUCAUGAGGAUAUGGCACCUUAUUGGUGCCAGAAGGCAUGUCUAUAGACAUGAGGAUCACCCAUGUAAUAAAUUGGACC [Eli NG1ss - 93] (Eterna round: R96, puzzle: Same State NG 1) | 30.2 | 344 | 831 |  |  | 
9 | AGUCCAGCCUGAGCUGGACAAAAGCAUGUACAUGAGGAUCACCCAUGUUCAUGUACAAGCUUUUUGCUCGUCUUAUA [salish99_208a_r3_043] (puzzle: Sensor for hsa-mir-208a) |  |  |  | 14.6 | 528 | 697
10 | GUAGCAUACCGAGGAUAUUCAUUACAUGAGGAUCACCCAUGUUUUAUAGGUCGAUUACGACCUUGGGAGAAGGCGGAAUGCUAC [Xeonanis - 20 Mod30] (Eterna round: R96, puzzle: Same State NG 2) | 10.5 | 9.36 | 15.6 |  |  | 
11 | GAGCUCGUGUGAGGAUAUGCCGCCGUUUCGGCUGCAGAAGGUGCUACGUUACAUGAGGAUCACCCAUGUCUCUGUUGUUUCGUG [salish99_SSNG1_r04_958] (Eterna round: R96, puzzle: Same State NG 1) | 23.5 | 20.4 | 21.9 |  |  | 
12 | CGAUCAUACUCAGGACGGAGAGUAGAGGAACAUGAGGAUCACCCAUGUAUGAGCUUUUUGCUCGUCAUGAACAGGAG [JR_SHM208a_Sub010] (puzzle: Sensor for hsa-mir-208a) |  |  |  | 59.7 | 67.2 | 121
13 | GUACAGAUUAUAGGAUAUCACGUCGAAUAGACGUGAGAAGGAUAAUCCCACAUGAAUAUUAAUACAUGAGGAUCACCCAUGUAC [SSNG1/18-B1] (Eterna round: R96, puzzle: Same State NG 1) | 16.8 | 19.8 | 20.4 |  |  | 
14 | AGAUGUUAAUCAGGAUAUGGGCACAUGAGGAUCACCCAUGUAAAUUAGAUACUAUGUGGUCAAGUCUAGAAGGGAUGGCUAACA [SameState NG2 #81] (Eterna round: R96, puzzle: Same State NG 2) | 346 | 145 | 182 |  |  | 
15 | GGUCCAGCCUGAGCUGGACAAAAGCAUGUACAUGAGGAUCACCCAUGUUCAUGUACAAGCUUUUUGCUCGUCUUAUG [salish99_208a_r3_053] (puzzle: Sensor for hsa-mir-208a) |  |  |  | 18.1 | 693 | 785
16 | GGUAUCAGCACAGGAUAUGCUAUCCUUUGGGUAGCAGAAGGGUGGACAUGAGGAUCACCCAUGUGGGUGCCAGGGCGUGAGCCC [JL SSNG1 1.86] (Eterna round: R96, puzzle: Same State NG 1) | 426 | 75.9 | 323 |  |  | 

Row | Sequence | apparent KD of MS2 coat protein (input ligand: FMN 200 uM) [nM] | apparent KD of MS2 coat protein [1] [nM] | apparent KD of MS2 coat protein (input ligand: none) [nM] | apparent KD of MS2 coat protein [2] [nM] | apparent KD of MS2 coat protein [3] [nM] | apparent KD of MS2 coat protein [4] [nM]
17 | GUCAGCGAUUGAGGAUAUCACGUCGUUUAGACGUGAGAAGGCGAUCAUAACAUGAGGAUCACCCAUGUAUUACAUGAAGCUGAC [SSNG1/5-A3] (Eterna round: R96, puzzle: Same State NG 1) | 17.2 | 20.1 | 32.6 |  |  | 
18 | GCCGGCUGGUGAGGAUAUGGCGCCUUAUUGGUGCCAGAAGGCAUGUCAAUUGACAUGAGGAUCACCCAUGUGUUGUCGUUGGCG [salish99_SSNG1_r04_610] (Eterna round: R96, puzzle: Same State NG 1) | 695 | 357 | 353 |  |  | 
19 | UUAUCUCAGACAUGAGGAUCACCCAUGUGGUUUUGACUUAGACAGGAUAUAGUAGUAUCGAAAUACUAGAAGGGUCAUUUUAUU [JR_SSNG3_Sub022] (Eterna round: R96, puzzle: Same State NG 3) | 91.3 | 99.5 | 125 |  |  | 
20 | AACAAUCUAUCUGAGGAUAUCAUGAAAUAAACAUGAGGAUCACCCAUGUGCAGGAAAACUGCAUAUGAGAAGGCAGAUAGUUUGA [salish99_ss2_r3_056] (puzzle: Same State 2) |  |  |  | 716 | 47.5 | 855
21 | UGCCUGAGUCGAGGAUAUUAUGGAUCCUUUAAUACAUGAGGAUCACCCAUGUAAUUAAUUAUACAUGAGAAGGCGACUCAGGCA [SSNG2/11-A2] (Eterna round: R96, puzzle: Same State NG 2) | 17.4 | 97 | 90.1 |  |  | 
22 | GGUGCCAAAUAAGCCUACAUGAGGAUCACCCAUGUAUGUAGGCAGGAUAUCGUUUGCAAAGCAAACGAGAAGGGCUGAGGCACC [Mat - Same State NG 3 - JL Mod - D53] (Eterna round: R96, puzzle: Same State NG 3) | 26.1 | 42.7 | 81 |  |  | 
23 | GUGGUCAGACAUGAGGAUCACCCAUGUGGAAUAAAUAAGGAACAGGAUAUCUAAUAUAGGAUAUAAGAGAAGGGUUGGUUGGUG (Eterna round: R96, puzzle: Same State NG 3) |  | 61.9 |  |  |  | 
24 | CCGGUUUAUGGAGGAUAUGGAGCCUUAUUGGCUCCAGAAGGCUAAUAACAUGAGGAUCACCCAUGUCCGGCGGUCAAUAGACCG [Eli NG1ss - 57] (Eterna round: R96, puzzle: Same State NG 1) | 21.7 | 69.8 | 90.5 |  |  | 
25 | UUCUGAUAGCGAGGAUAUCGCGAGGAUCACCCGUGAGAAGGCGCAGAGCCGAGGAUCACCCGGCUGAUCCUGAGAAGGAGGUCA (Eterna round: R96, puzzle: Same State NG 1) | 136 | 333 | 530 |  |  | 
26 | UGUUGUAUUACAGGAUAUCUAUUGUUGUUAUUUAGAGAAGGGUAUUCACAUGAGGAUCACCCAUGUAUAUACGAGGAAGUUGUG [JMF's solution 75] (Eterna round: R96, puzzle: Same State NG 1) |  | 41.9 |  |  |  | 
27 | GUGGUGAAUUAAGGAUAUCGAGUCAAGAUGUUAAACAUGAGGAUCACCCAUGUGGGUUGCGGUAUCGAGAAGGUAAUUUACGGG [salish99_SSNG2_r04_506] (Eterna round: R96, puzzle: Same State NG 2) | 17.3 | 20.1 | 30.3 |  |  | 
28 | GCUGGAACUCACAUGAGGAUCACCCAUGUUCCGGAAACGGCACAGGAUAUCUGUCCGAAAAGGUCAGAGAAGGGUGUAACCAGC [Fiskers NG3ss - 87] (Eterna round: R96, puzzle: Same State NG 3) | 137 | 51 | 88.8 |  |  | 
29 | AACAAUCUAUCUGAGGAUAUCAUGUCAAAGACAUGAGGAUCACCCAUGUUGCAGGAAACUGCUCAUGAGAAGGCAGAUAGAUUGA [SS2: 1129] (Eterna round: R96, puzzle: Same State 2) | 41 | 329 | 385 |  |  | 
30 | AAUUAAUUAAUUAAUAUACAUGAGGAUCACCCAUGUAAGAUCAAGGAUAUCAGCUCGAAUAGAGCUGAGAAGGUGAUCACAUGU [SSNG3/16-A1] (Eterna round: R96, puzzle: Same State NG 3) |  | 251 |  |  |  | 
31 | AUCCCAUCGGGAGGAUAUGGAACCUUAUUGGUUCCAGAAGGUCCAACAUGAGGAUCACCCAUGUGGGAGUGGUCUAAUGACCAC [Fiskers NG1ss - 29] (Eterna round: R96, puzzle: Same State NG 1) | 222 | 272 | 470 |  |  | 
32 | AUGCAGCUACCACAGGAUAUACGUGGAUCGACAUGAGGAUCACCCAUGUAUAUCCUAAUAAUUGCGUAGAAGGGUGGUCAGCUGC [Tezaqutete] (puzzle: Same State 2) |  |  |  | 696 |  | 

Source: the supplement of paper PMC9170038
